Assay results from the supplement of paper PMC10567573.

B1: BRF1 (parent)
chain: FVESSGGGSSAVGQFVSLDGAGKT

Variants of: B1
Experiment: protein stability index of a GFP-peptide fusion (GPS, HEK-293T) (PSI 1-6); higher = more stable
Conditions: c terminus: a fixed tail appended
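Also: lentivirally expressed fusions sorted by FACS into six bins by GFP to DsRed ratio, PSI derived from sequencing read proportions per bin multiplied by bin number.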

| Variant | protein stability index |
| --- | --- |
| FVESSGGGSSAVGQFVSLDGIGKT [A21I] | 1.96 |
| FVESSGGGSSAVGQFVSLDGYGKT [A21Y] | 1.91 |
| FVESSGGGSSAVGQFVSLDGMGKT [A21M] | 2.32 |
| FVESSGGGSSAVGQFVSLDGRGKT [A21R] | 2.66 |
| FVESSGGGSSAVGQFVSLDGQGKT [A21Q] | 2.03 |
| FVESSGGGSSAVGQFVSLDGVGKT [A21V] | 1.92 |
| FVESSGGGSSAVGQFVSLDGGGKT [A21G] | 2.6 |
| FVESSGGGSSAVGQFVSLDGSGKT [A21S] | 2.15 |
| FVESSGGGSSAVGQFVSLDGEGKT [A21E] | 3.23 |
| FVESSGGGSSAVGQFVSLDGLGKT [A21L] | 1.8 |
| FVESSGGGSSAVGQFVSLDGDGKT [A21D] | 3.36 |
| FVESSGGGSSAVGQFVSLDGTGKT [A21T] | 2.54 |
| FVESSGGGSSAVGQFVSLDGNGKT [A21N] | 2.56 |
| FVESSGGGSSAVGQFVSLDGPGKT [A21P] | 1.95 |
| FVESSGGGSSAVGQFVSLDGCGKT [A21C] | 1.81 |
| FVESSGGGSSAVGQFVSLDGHGKT [A21H] | 2.13 |
| FVESSGGGSSAVGQFVSLDGKGKT [A21K] | 2.43 |
| FVESSGGGSSAVGQFVSLDGWGKT [A21W] | 1.73 |
| FVESSGGGSSAVGQFVSLDGFGKT [A21F] | 1.33 |
| FVESSGGGSSAVGQFVSLDQAGKT [G20Q] | 3.03 |
| FVESSGGGSSAVGQFVSLDTAGKT [G20T] | 2.21 |
| FVESSGGGSSAVGQFVSLDIAGKT [G20I] | 2.16 |
| FVESSGGGSSAVGQFVSLDMAGKT [G20M] | 1.76 |
| FVESSGGGSSAVGQFVSLDYAGKT [G20Y] | 1.6 |

| Variant | protein stability index |
| --- | --- |
| FVESSGGGSSAVGQFVSLDAAGKT [G20A] | 2.41 |
| FVESSGGGSSAVGQFVSLDFAGKT [G20F] | 2.6 |
| FVESSGGGSSAVGQFVSLDNAGKT [G20N] | 2.32 |
| FVESSGGGSSAVGQFVSLDCAGKT [G20C] | 2.41 |
| FVESSGGGSSAVGQFVSLDSAGKT [G20S] | 1.75 |
| FVESSGGGSSAVGQFVSLDVAGKT [G20V] | 2.41 |
| FVESSGGGSSAVGQFVSLDKAGKT [G20K] | 1.72 |
| FVESSGGGSSAVGQFVSLDDAGKT [G20D] | 2.43 |
| FVESSGGGSSAVGQFVSLDEAGKT [G20E] | 2.55 |
| FVESSGGGSSAVGQFVSLDHAGKT [G20H] | 2.55 |
| FVESSGGGSSAVGQFVSLDRAGKT [G20R] | 2.32 |
| FVESSGGGSSAVGQFVSLDPAGKT [G20P] | 2.13 |
| FVESSGGGSSAVGQFVSLDWAGKT [G20W] | 2.34 |
| FVESSGGGSSAVGQFVSLDLAGKT [G20L] | 2.58 |
| FVESSGGGSSAVGQFVSLDGAGFT [K23F] | 1.59 |
| FVESSGGGSSAVGQFVSLDGAGVT [K23V] | 2.12 |
| FVESSGGGSSAVGQFVSLDGAGDT [K23D] | 2.68 |
| FVESSGGGSSAVGQFVSLDGAGGT [K23G] | 2.38 |
| FVESSGGGSSAVGQFVSLDGAGTT [K23T] | 2.55 |
| FVESSGGGSSAVGQFVSLDGAGMT [K23M] | 2.16 |
| FVESSGGGSSAVGQFVSLDGAGLT [K23L] | 2.21 |
| FVESSGGGSSAVGQFVSLDGAGYT [K23Y] | 2.05 |
| FVESSGGGSSAVGQFVSLDGAGRT [K23R] | 2.21 |
| FVESSGGGSSAVGQFVSLDGAGIT [K23I] | 2.02 |

| Variant | protein stability index |
| --- | --- |
| FVESSGGGSSAVGQFVSLDGAGAT [K23A] | 2.04 |
| FVESSGGGSSAVGQFVSLDGAGPT [K23P] | 2.73 |
| FVESSGGGSSAVGQFVSLDGAGCT [K23C] | 2.23 |
| FVESSGGGSSAVGQFVSLDGAGST [K23S] | 2 |
| FVESSGGGSSAVGQFVSLDGAGHT [K23H] | 2.24 |
| FVESSGGGSSAVGQFVSLDGAGQT [K23Q] | 2.01 |
| FVESSGGGSSAVGQFVSLDGAGET [K23E] | 2.56 |
| FVESSGGGSSAVGQFVSLDGAGWT [K23W] | 2.28 |
| FVESSGGGSSAVGQFVSLDGAGNT [K23N] | 2.19 |
| FVESSGGGSSAVGQFVSYDGAGKT [L18Y] | 1.85 |
| FVESSGGGSSAVGQFVSWDGAGKT [L18W] | 1.58 |
| FVESSGGGSSAVGQFVSLDGAQKT [G22Q] | 2.26 |
| FVESSGGGSSAVGQFVSLDGAPKT [G22P] | 3.13 |
| FVESSGGGSSAVGQFVSLDGAWKT [G22W] | 1.84 |
| FVESSGGGSSAVGQFVSLDGAVKT [G22V] | 2.29 |
| FVESSGGGSSAVGQFVSLDGAYKT [G22Y] | 1.9 |
| FVESSGGGSSAVGQFVSLDGACKT [G22C] | 1.79 |
| FVESSGGGSSAVGQFVSLDGARKT [G22R] | 1.87 |
| FVESSGGGSSAVGQFVSLDGAIKT [G22I] | 2.62 |
| FVESSGGGSSAVGQFVSLDGAEKT [G22E] | 3.08 |
| FVESSGGGSSAVGQFVSLDGAHKT [G22H] | 2.65 |
| FVESSGGGSSAVGQFVSLDGAFKT [G22F] | 2.35 |
| FVESSGGGSSAVGQFVSLDGAAKT [G22A] | 3 |
| FVESSGGGSSAVGQFVSLDGALKT [G22L] | 1.6 |

| Variant | protein stability index |
| --- | --- |
| FVESSGGGSSAVGQFVSLDGADKT [G22D] | 3.15 |
| FVESSGGGSSAVGQFVSLDGANKT [G22N] | 2.39 |
| FVESSGGGSSAVGQFVSLDGATKT [G22T] | 2.09 |
| FVESSGGGSSAVGQFVSLDGAKKT [G22K] | 1.73 |
| FVESSGGGSSAVGQFVSLDGASKT [G22S] | 2.47 |
| FVESSGGGSSAVGQFVSLTGAGKT [D19T] | 1.59 |
| FVESSGGGSSAVGQFVSLFGAGKT [D19F] | 1.48 |
| FVESSGGGSSAVGQFVSLAGAGKT [D19A] | 1.72 |
| FVESSGGGSSAVGQFVSLQGAGKT [D19Q] | 1.98 |
| FVESSGGGSSAVGQFVSLCGAGKT [D19C] | 1.72 |
| FVESSGGGSSAVGQFVSLHGAGKT [D19H] | 2.27 |
| FVESSGGGSSAVGQFVSLWGAGKT [D19W] | 3.02 |
| FVESSGGGSSAVGQFVSLSGAGKT [D19S] | 1.59 |
| FVESSGGGSSAVGQFVSLNGAGKT [D19N] | 2.02 |
| FVESSGGGSSAVGQFVSLEGAGKT [D19E] | 2.56 |
| FVESSGGGSSAVGQFVSLMGAGKT [D19M] | 2.17 |
| FVESSGGGSSAVGQFVSLPGAGKT [D19P] | 2.26 |
| FVESSGGGSSAVGQFVSLVGAGKT [D19V] | 1.12 |
| FVESSGGGSSAVGQFVSLGGAGKT [D19G] | 1.69 |
| FVESSGGGSSAVGQFVSLKGAGKT [D19K] | 2.55 |
| FVESSGGGSSAVGQFVSLDGAGKK [T24K] | 2.44 |
| FVESSGGGSSAVGQFVSLDGAGKC [T24C] | 2.27 |
